# Experimental data: patent US20180186853A1 (HANMI PHARM, published 2018)
# Positions of bridges follow the written chain, without caps; N, C: chain ends. Non-standard residues stand in square brackets, D forms with d. No end group written: not given here. Aib = CC(C)(N)C(=O)O
# Target: human glucagon receptor (human, UniProt P47871 26-477)
# Test: cell-based or functional assay
# Chain of human glucagon receptor (P47871 26-477): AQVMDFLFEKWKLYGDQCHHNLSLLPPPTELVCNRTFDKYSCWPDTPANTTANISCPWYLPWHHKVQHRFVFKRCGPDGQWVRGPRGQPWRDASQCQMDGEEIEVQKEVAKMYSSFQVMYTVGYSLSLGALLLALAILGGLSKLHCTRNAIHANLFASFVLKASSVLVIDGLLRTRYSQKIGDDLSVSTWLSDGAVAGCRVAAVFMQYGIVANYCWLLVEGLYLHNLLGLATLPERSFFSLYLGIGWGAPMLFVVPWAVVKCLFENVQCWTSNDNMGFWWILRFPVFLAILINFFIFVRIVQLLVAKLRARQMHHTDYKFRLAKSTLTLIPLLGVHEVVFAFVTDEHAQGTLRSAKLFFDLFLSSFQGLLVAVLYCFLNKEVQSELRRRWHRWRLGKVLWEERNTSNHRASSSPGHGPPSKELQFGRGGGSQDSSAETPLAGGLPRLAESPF
row,Binder,"In vitro Activity (Relative Activity of SEQ ID NO: 1, %), from cAMP EC50"
1,"Y[Aib]QGTFTSDYSKYLDERRAKEFVQWLMNTC (bridge 16-20; also: ring between positions 16 and 20, kind not given here) [glucagon derivative of SEQ ID NO: 37]",226%
2,"Y[Aib]QGTFCSDYSKYLDERRAKDFVQWLMNT (bridge 16-20; also: ring between positions 16 and 20, kind not given here) [glucagon derivative of SEQ ID NO: 41]",45.2%
3,Y[Aib]QGTFTSDYSKYLDSCDAQDFVQWLINT [glucagon derivative of SEQ ID NO: 8],< 0.1%
4,Y[Aib]QGTFTSDCSKYLDSRRAQDFVQWLMNT [glucagon derivative of SEQ ID NO: 43],1.6%
5,YXQGTFTSDYSKYLDSRRAQDFVQWLMNTC (X at position 2 = aminoisobutyric acid (Aib)) [glucagon derivative of SEQ ID NO: 44],75.4%
6,HSQGTFTSDYSKYLDSCDAQDFVQWLMNT [glucagon derivative of SEQ ID NO: 4],< 0.1%
7,YSQGTFTSDYSKYLDSCEADDFVQWLMNT [glucagon derivative of SEQ ID NO: 7],< 0.1%
8,"Y[Aib]QGTFTSDCSKYLDERRAKEFVQWLMNT (bridge 16-20; also: ring between positions 16 and 20, kind not given here) [glucagon derivative of SEQ ID NO: 36]",9.9%
9,"Y[Aib]QGTFCSDYSKYLDERRAKEFVQWLMNT (bridge 16-20; also: ring between positions 16 and 20, kind not given here) [glucagon derivative of SEQ ID NO: 38]",167%
10,Y[Aib]QGTFCSDYSKYLDSRRAQDFVQWLMNT [glucagon derivative of SEQ ID NO: 42],37.9%
11,HSQGTFTSDYSKYLDCERAQDFVQWLMNT [glucagon derivative of SEQ ID NO: 3],6.1%
12,HSQGTFTSDYSKYLDSCEAQDFVQWLMNT [glucagon derivative of SEQ ID NO: 5],0.3%
13,"Y[Aib]QGTFVSDCSKYLDERRAKDFVQWLMNT (bridge 16-20; also: ring between positions 16 and 20, kind not given here) [glucagon derivative of SEQ ID NO: 39]",3.7%
14,HSQGTFTSDYSKYLDSCEADDFVQWLMNT [glucagon derivative of SEQ ID NO: 6],< 0.1%
15,"Y[Aib]QGTFVSDYSKYLDERRAKDFVQWLMNTC (bridge 16-20; also: ring between positions 16 and 20, kind not given here) [glucagon derivative of SEQ ID NO: 40]",40.8%
